We go through 41 sequences from the nanobody polyreactivity screen of Harvey et al. (2022).

The series is described as follows: yeast display, Sf9 membrane polyspecificity reagent, FACS + sequencing; frameworks hold sequencing errors. Summed up: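 Galactose-induced (36–48 hours) yeast carrying a synthetic nanobody display library were exposed to 10% biotinylated, detergent-solubilized Sf9 membrane reagent at 4 °C for 1 hour. FACS followed streptavidin microbead enrichment, using low and high (top ~1%) gates for expression (anti-HA) and reagent binding (streptavidin). Colony PCR, MiSeq 2 × 250 sequencing and CDR-length filtering followed. Labels for polyreactivity reflect the gate of origin.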
On to “QVHLVESGRGLVQAGGSLRLSCAASGIIFYDYSMGWYRQAPGKERELVAAISWDGVSSYYADSVKGRFTISRDNAKNTVYLQMNSLKPEATAVYYCAARAVTDDDYEFDDWGQGTQVTVSS”, for which the “polyreactivity (PSR sort gate)” value is on record as “low polyreactivity”.

Turning to “QVHLVESVGGLVQAGGSLRLSCAASGSIFYYNAMGWYRQAPGKERELVAAISSGGSTNYADSVKGRFTISRDNAKNTVYLQMNSLKPEDTAVYYCATGWSWYHPDYDYWGQGTQVTVSS”, the “polyreactivity (PSR sort gate)” value is given as “low polyreactivity”.

With “QVHLVETGGGLVQAGGSLRLSCAASGFTFAYYAMGWYRQAPGKEREFVAVITWSGGDKYYADSVKGRFTISRDIAKNTVYLQMNSLKPVDTSVYYCNADAYRITRYGYDYWGQGTQVTVSS”, the “polyreactivity (PSR sort gate)” value is reported as “high polyreactivity”.

With “QVHLVETGGGLVQAGGSLRLSCGASGYIFSQYAMGCYRQAPGKERELVADITTSAGSTYYADSVKGRFTISRDNAKNTVYLQMNSVIPEDTAVYYCAADVYGHSYYDYDYWGQGTQVTVSS”, the “polyreactivity (PSR sort gate)” value is listed as “low polyreactivity”.

Take “QVHLVVSGGGLVQAGGSLRLSCAASGRLLYKYAMGWNRQAPGKERELVAAISGSGGRTYYADSVKGRFTISRDNAKNTVYLQMNSLKPEDTAVYYCAAVHPFRHVLYDYWGQGTQVTVSS”: the “polyreactivity (PSR sort gate)” value is “low polyreactivity”.

As for “QVHPVESGGGLVQAGGSLRLSCAASGGILYRNAMGWYRQAPGKERELVAAISSRGGSTYYADSVKGRFTISRDNAKNTVYLQMNSLKPEDTAVYYCAVVNRSAQSLKYEYWGQGTQVTVSS”, the “polyreactivity (PSR sort gate)” value is reported as “high polyreactivity”.

On to “QVHQQESGGGLMQAGGSQRLSCAASGSISYYSDMGRYRQAPGKEREFVAGIGYGTTTNYADSVKGRFTTSRDNAKNTVYLQMISMKPEDNAVYYCAAYQGNGYEFYYWGQGTQVTVRS”, for which the “polyreactivity (PSR sort gate)” value is given as “low polyreactivity”.

Regarding “QVHRGETGGGLVQAGGSLRLSCSASGLSFPHYAMGWYRQAPGKERDLVADINLSGGSNTYYADSVKGRFTISRDNAKNTVYLMMNSLKPEDTPVYDCNAVSWENWYHIMDYWGQGTQVTVSS”, the “polyreactivity (PSR sort gate)” value is recorded as “high polyreactivity”.

As to “QVHRVESGGRLVPAGGSLRLSCAASGFTFSVNAMGWYTPPPGKEMELVAAISSGGSTSYADSVKGRFTISRDNAKNTVYLQMNSLKPEDTAVYYCAAEYHSAGSLYTYSKYYHWGQGTQVTVSS”, the “polyreactivity (PSR sort gate)” value is reported as “low polyreactivity”.

“QVHVVESGGGLVQAGGSLRLSCAASGFTFAKYAMGWYRQAPGKERELVAVITSSGGRTYYADSVKGRFTISRDNAKNTVYLQMNSLKPEDTAVYYCNAGKYVYATSQYDYWGQGTQVTVSS”: the “polyreactivity (PSR sort gate)” value is given as “high polyreactivity”.

“QVKHVESGGGLVQAGASLRLSCAASGSIFAYNAMGCYIQAPGKERELVATISRGGNTNYADSVKGRFTISRDNAKNSVYLQMNSLKPEDTAVYYCNVLGRDIDHEYGYWGQGTQVTVSS”: the “polyreactivity (PSR sort gate)” value is given as “high polyreactivity”.

Consider “QVKLEESGGCLVQAGGSLRLSCAASGFTFEENAMGWYRQAPGKERELVAAINWSGGNTYYADSVKGRFTISRDNAKNTVYLQMNSLKPEDTAVYYCAADSPRYYYWVGPYYGYDYWGQGTQVTVSS”, for which the “polyreactivity (PSR sort gate)” value is given as “high polyreactivity”.

With “QVKLEESGGGLVQAGGSLRLSCAASGRTFTTYSMGCYRQAPGKERELVAAISGSGGSTYYADSVKGRFTISRDNAKNSVYVQMNSLKPEDTAVYYCATAYYYHGGYYYPYDDYWGQGTQVTVSS”, the “polyreactivity (PSR sort gate)” value is “low polyreactivity”.

As for “QVKLEESGGGLVQAGGSLRLSCAASGSIFVVNAMGRYRPAPGKERELVDTITESGGSTYYADSVKGRFTISRDNAKNTVYLQMNSLKPEDTAVYYCAAYWHHKGDYWGQGTQVTVSS”, the “polyreactivity (PSR sort gate)” value is listed as “low polyreactivity”.

Regarding “QVKLEESGGGLVQAGGSLRLTCAASGRIFYLYGMGWYRQATGKERELVAAIDRRGTRTYYADSVKGRFTISCDNAQTTFYLQMNSVKPEDTAVYYCAARFAAYRTYTSYDYWGQGTQVTVSS”, the “polyreactivity (PSR sort gate)” value is recorded as “high polyreactivity”.

For the sequence “QVKLVDSGGGLVQAGGSLRLSCAASGFIFYSYDMGWYRQAPGKERELVATITSGDDTYYADSVKGRFTISRDNAKNTVYLQMNSQKPEDTAVGYWGQGTQVTVSS”, the “polyreactivity (PSR sort gate)” value is “low polyreactivity”.

As for “QVKLVDSGGGLVQAGGSLRLSCAASGRTFRYYTMGWYRQAPGTERELVAAITRNVGRTYYADSVKGRFTISRDNAKNTVYLQMNSLKPEDTAVYYCAAGTYDGGYHYDYWGQGTQLTVSS”, the “polyreactivity (PSR sort gate)” value is on record as “high polyreactivity”.

Turning to “QVKLVEAGGGLVQAGGSLRFSCAASGNIFQGNARGWYREAPGKERELVAAITYSGAGTYYADSVKGRFTISRDNAKNSVYLQMNSLNPEDTAVYYSAADWYTFEYDYWGQGTQVTVSS”, the “polyreactivity (PSR sort gate)” value is on record as “low polyreactivity”.

On to “QVKLVESAGGLVQAGGSLRLSCAASGRTFVGNAMGWYRQEPGKEREVVAAITSRTGSTYYADSVKGRFTISRDNAKNTGYLQMNSLKPEDTAVYYGATPYYQIVYSRKAYNFWGQGTQVTVSS”, for which the “polyreactivity (PSR sort gate)” value was “high polyreactivity”.

For the sequence “QVKLVESAGGLVQAGGSLRLSCAASGSIFNPYDMGWYRQAPGKERELVAAIDWSGGSTYYADSVKGRFTISRDNAKNTVYLQMNSLKPEDTAVYYCNAESYQDTLFGADNDYDYWGQGTQVTVSS”, the “polyreactivity (PSR sort gate)” value is “low polyreactivity”.

For “QVKLVESGGGIVQAGGSLRLSCAASGRIFYSNVMGWYRQAPGKERELVATISGSSGRTYADSVKGRFTISRDNAKNTVYLQMNSLKPEDTAVYYCAADSPSVWGYRYDYDYWGQGTQVTVSS”, the “polyreactivity (PSR sort gate)” value is “low polyreactivity”.

Turning to “QVKLVESGGGLFQAGGSLRLSCAASVSIFYGNAIVWYRQAPGKERELVAAISSRGTRTYYADSVKGRFTISRDNAKNTVYLQMNSLNPEATAVYYCAAADYRFYNGPYSRRWLYGYWGQGTQVTVSS”, the “polyreactivity (PSR sort gate)” value was “high polyreactivity”.

For “QVKLVESGGGLVKAGGRLRLSCAASGSTFRKYTMGWYRQAPWKERELVAAITYRGDRTYYADSVKGRFTISRDNAKNNVYLQMNSLKQEDTAVYYCAAVYVRGDRYDYWGQGTQVTVSS”, the “polyreactivity (PSR sort gate)” value was “high polyreactivity”.

Consider “QVKLVESGGGLVQAGGRLRLSCAASGFTFPSNAMVWYRHAPGKEREMVAAISSTDSTNYADSVMGRFTISRDNAKNTVYLQMNSLNPEDTAVYYCAKRYPRYRYNTRGNDYWGQGTQVTVSS”, for which the “polyreactivity (PSR sort gate)” value is on record as “low polyreactivity”.

Turning to “QVKLVESGGGLVQAGGSLRISCAASGRTFGYNAMGWYRQAPGKERELVAGISGRTASTYYADSVKGRFTISRDNAKNTVYLQMNSLKPVDTEVYYCATQFGSIYRYDYWGQGTEVTVSS”, the “polyreactivity (PSR sort gate)” value was “high polyreactivity”.

As for “QVKLVESGGGLVQAGGSLRLSCAASGFTFALYSMGWYRQAPGKERELVAAITRRGGSTYYADSVKGRFTISRDNAKNTVYVQMNSLKPEDTAVYYCAKRERAIKVSRYDSHDYWGQGTQVTVSS”, the “polyreactivity (PSR sort gate)” value is recorded as “high polyreactivity”.

Turning to “QVKLVESGGGLVQAGGSLRLSCAASGFTFNANAMRWYRQAPGKERELVAAISLSGGRTYYADSVKGRFTISRDNAKNTVYLQMISLKPEDTAVYYCAASPDGSFRRFSRVVSGDYWGKGTQVTVSS”, the “polyreactivity (PSR sort gate)” value was “high polyreactivity”.

Take “QVKLVESGGGLVQAGGSLRLSCAASGFTFSGYDMGWYRQAPGKERELVAGISSGGVSTTYADSVKGRFTISRDNAKNTVYLQMNSLIPEDTAVYYCNAEWTSFDWGQGTQVTVSS”: the “polyreactivity (PSR sort gate)” value is given as “low polyreactivity”.

Regarding “QVKLVESGGGLVQAGGSLRLSCAASGFTFYTYAMGWYRQAPGKETELFAAITGSGGRTYYADSVKGRFTISRDNAKNTVYLKMHSLKPEYTSLYYCAALYVYRPRTPYGYWGQGTQVTVSS”, the “polyreactivity (PSR sort gate)” value is given as “high polyreactivity”.

Consider “QVKLVESGGGLVQAGGSLRLSCAASGFTVYGYSMGWYRQEPGKERELVAAITSVGDTNYADSVKGRFTISRDNAKNNVYLQINSLKPEDTAVYYCKADPVYYFYWWTGDYWGQGTQETVSS”, for which the “polyreactivity (PSR sort gate)” value is given as “low polyreactivity”.

“QVKLVESGGGLVQAGGSLRLSCAASGFTYFINGMGWYRQAPGKERQLVAAIRSSGASTYYADSVKGRFTISRDNAKNTVYLQMNSLKPEDTAVYYCNARSSVCNSGADYDYWGQGTQVTVSS”: the “polyreactivity (PSR sort gate)” value is “low polyreactivity”.

Consider “QVKLVESGGGLVQAGGSLRLSCAASGRIFIEYARGWYRQAPGKERELVASSTSSGGRTTYADSVKGRFTISRDNAKNTVYLQINSLKPEDTAVYYCNKDYYPRGHTRFGYWGVGTQVTVSS”, for which the “polyreactivity (PSR sort gate)” value was “low polyreactivity”.

On to “QVKLVESGGGLVQAGGSLRLSCAASGRIFRYYVMGWYRQAPGKERELVAAITSGGSTYYADSVKGRFTISRDNAKNTVYLQMNSLKPEDTAVYYCNVVGRYGSFRSAEMNYWGQGTQVTVSS”, for which the “polyreactivity (PSR sort gate)” value is reported as “high polyreactivity”.

With “QVKLVESGGGLVQAGGSLRLSCAASGRTFAWYTMGRYRQAPGKERALVAAISGSGGSTYYADSVKGRFTISRDNAKNTVYLQLNSLKPEDTDVYYCARRVDSYYCHTRYYYWGQGTQVTVSS”, the “polyreactivity (PSR sort gate)” value was “high polyreactivity”.

Regarding “QVKLVESGGGLVQAGGSLRLSCAASGRTFKYYAMGWYRQAPGKERELVAAISWSGGSTYYADSVMGRFTISRDNAKNTVYLQMNSLKPEDTAVYYCAAVRNYHGTWYDYWGQGTQVTVSS”, the “polyreactivity (PSR sort gate)” value is “high polyreactivity”.

On to “QVKLVESGGGLVQAGGSLRLSCAASGRTFPRYAMGWYRQAPGKERELVAVIYGGGTYYADSVKGRFTISRDNAKNTVYLQMNSLKPEDTSVYYCNARSYQSARFRGGYWGQGTQVTVSS”, for which the “polyreactivity (PSR sort gate)” value is “high polyreactivity”.

For “QVKLVESGGGLVQAGGSLRLSCAASGSIFALYAMGWYRQAPGKEREFVARISWGGGRTYYADSVKGRFTISRDNAQNTVYLQMNSLKPEDTAVYYCNAERAGTYSYDYWGQGTQVTVSS”, the “polyreactivity (PSR sort gate)” value was “high polyreactivity”.

In the case of “QVKLVESGGGLVQAGGSLRLSCAASGSIFNTYVMGWYRQAPGKERELVAAITSSGGRTYYADSVKGRFTISRDNAKNTVYLQMNSLKPEDTAVYYCNTAQRWVGRNDYWGQGTQVTVSS”, the “polyreactivity (PSR sort gate)” value is on record as “high polyreactivity”.

Regarding “QVKLVESGGGLVQAGGSLRLSCAASGSIFWSYAMGWYRQAPGKEREFVPSITGSGGTTTYADSVKGRFTISLDNAKNTVYVQMNSLKPEDTAVYYCNARLHGWYHVYYIYDYWGQGTQVTVSS”, the “polyreactivity (PSR sort gate)” value was “low polyreactivity”.

Take “QVKLVESGGGLVQAGGSLRLSCAASGSIFWYNAMGWYRQAPGKERELVAAIRWRGGSTYYADSVNGRFTISRDNAKNTVYLQMNSLKPEDTAVYYCAAQVYVSQMYTSYYYWGQGTQVTVSS”: the “polyreactivity (PSR sort gate)” value is recorded as “high polyreactivity”.

As to “QVKLVESGGGLVQAGGSLRLSCAASGSIFYTYAMGWYRPAPGKERELVAAISSGGSTDYADSVKGRFTISRDNAKNTVYLQMNSLKPEDTAVYYCAAVAVELASEYDYWGQGTQVTVSS”, the “polyreactivity (PSR sort gate)” value is “low polyreactivity”.
